This is an account of results in paper PMC3596245.

The target in assay [1] is NMMIIA rod filaments (residues 1338-1960) (human) (UniProt P35579). Put plainly: co-sedimentation.
The target is the same in assay [2]. The assay is described as follows: co-sedimentation. The source holds these as a separate data set.

pKd: −log10 of the molar value. Like-named read-outs stand apart in the source and are kept apart here.

Consider “GST-gelsolin full-length (G1-G6) (from UniProt P06396 28-782) (natural protein)”, for which the values for the pKd in assay [1] and in assay [2] were 6.80 and 6.37, respectively.
Consider “GST-gelsolin C-terminal half (G4-G6) (domain or fragment)”, for which the pKd was 6.67 in assay [1] and 5.88 in assay [2].
The like results for “GST-gelsolin N-terminal half (G1-G3) (domain or fragment)” were, in that order, 6.66 and 6.31.
